Experimental data taken from patent US10662235B2, “Cysteine engineered fibronectin type III domain binding molecules” (Janssen Biotech, Inc., priority 2016, dated 2020).

Molecular target: T1, EGFR on A431 cells (Homo sapiens, UniProt P00533)
T1 construct: A431 cells (American Type Culture Collection, cat. # CRL-1555) over-express EGFR; host or cells: A431
Assay: A431 cell binding assay
Settings: purified FN3 domains
Method: To assess the ability of different FN3 domains to bind EGFR in a more physiological context, their ability to bind A431 cells was measured. A431 cells (American Type Culture Collection, cat. # CRL-1555) over-express EGFR with ˜2×10^6 receptors per cell. Cells were plated at 5,000/well in opaque black 96-well plates and allowed to attach overnight at 37° C., in a humidified 5% CO2 atmosphere. FN3 domain-expressing bacterial lysates were diluted 1,000-fold into FACS stain buffer (Becton Dickinson) and incubated for 1 hour at room temperature in triplicate plates. Lysates were removed and cells were washed 3 times with 150 μL/well of FACS stain buffer. Cells were incubated with 50 μL/well of anti-penta His-Alexa488 antibody conjugate (Qiagen) diluted 1:100 in FACS stain buffer for 20 minutes at room temperature. Cells were washed 3 times with 150 μL/well of FACS stain buffer, after which wells were filled with 100 μL of FACS stain buffer and read for fluorescence at 488 nm using an Acumen eX3 reader. […]
A431 cells were plated at 5,000/well in opaque black 96-well plates and allowed to attach overnight at 37° C., in a humidified 5% CO2 atmosphere. […] Cells were washed 3 times with 150 μL/well of FACS stain buffer, after which wells were filled with 100 μL of FACS stain buffer and read for fluorescence at 488 nm using an Acumen eX3 reader. […]

B1: P54CR4-31: EGFR-binding FN3 domain, SEQ ID NO: 26 (protein)
chain: LPAPKNLVVSEVTEDSLRLSWTAPDAAFDSFLIQYQESEKVGEAINLTVPGSERSYDLTGLKPGTEYTVSIYGVLGSYVFEHDVMLPLSAEFTT
modifications: EGFR binding FN3 domain
  EC50: > 20 µM
